From patent publication US20220356229A1 (published 2022)
Residue numbers refer to the chain shown, from its start.

B1: antibody 316 (antibody, V domains shown)
VH: QVHLVESGGGVVQPGRSLRLSCAASGFTLTAYAMHWVRQAPGKRLEWVALISYDGSVKKYADSVKGRITVSGDTSTNTLHLQMNSLRADDTAVYYCVRGGVSGPNSFDLWGQGTMVTVSS
VL: DVVMTQSPLSLPVTLGQPASMSCRSSQSLEYSDGNTYVNWFHQRPGQSPRRLIYKVSYRDSGVPDRFSGSGSGTDFTLQISRVEAEDVGIYYCMQGTHWPVTFGQGTKVEIK
B2: antibody 327 (antibody, V domains shown)
VH: QVQLVESGGGVVQPGRSLRLSCAASGFNLSNYAMHWVRQASGKGLEWVSLISYDGSIKYYTDSVKGRFTVSGDNSKNTLFLQMNSLRPDDSALYYCVRGGVSGPNSFDMWGQGTTVTVSS
VL: B1 VL with M21I, E30V, H42Q, K55Q, Y58I, D60A, T77A, Q79K
B3: antibody 329 (antibody, V domains shown)
VH: EVQLVESGGGLVQPGGSLRLSCAASGFTFSSYWMHWVRQAPGKGLVWVSRINSDGSSTSYADSVKGRFTISRDNAKNTLYLQMNSLRAEDTAVYYCAREGIVATITLDYWGQGTLVTVSS
VL: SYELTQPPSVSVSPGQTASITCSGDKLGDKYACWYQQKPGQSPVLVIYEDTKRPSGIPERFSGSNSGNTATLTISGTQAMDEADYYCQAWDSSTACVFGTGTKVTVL
B4: antibody 317 (antibody, V domains shown)
VH: QVQLVQSGAEVKKPGASVKVSCKVSGYTLTELSMHWVRQAPGKGLEWMGGFDPEDGETIYAQKFQGRVTMTEDTSTDTAYMELSSLRSEDTAVYYCASSPAAAGTSQYYYYYGMDVWGQGTTVTVSS
VL: not shown
B5: antibody 323 (antibody, V domains shown)
VH: QVQLVQSGAEVKKPGASVKVSCKVSGYTLTELSMHWVRQAPGKGLEWMGGFDPEDGETIYAQKFQGRVTMTEDTSTDTAYMELSSLRSEDTAVYYCATSTIFAPGGWFDPWGQGTLVTVSS
VL: QSALTQPASVSGSPGQSITISCTGTSSDVGSYNLVSWYQQHPGKAPKLMIYEVSKRPSGVSNRFSGSKSGNTASLTISGLQAEDEADYYCCSYAGSTHYVFGTGTKVTVL
B6: antibody 326 (antibody, V domains shown)
VH: QITLKESGPTLVKPTQTLTLTCTFSGFSLNTSGVGVGWIRQPPGKALEWLSLIFWNDDKRYSPSLRSRLTITKDTSKNQVVLTMTNMDPVDTATYFCAHRNSGWSLKFDSWGQGSLVTVSA
VL: DIQMTQSPSSVSASVGDRVTITCRARQGISSWLVWYQQKPGKAPKLLIFGASSLQSGVPSRFNASGTGTEFTLTISSLQPEDFATYYCQQADSFPITFGQGTRLEIK
B7: antibody 331 (antibody, V domains shown)
V domain 1: QITLKESGPTLVKPTETLTLTCSFSGFSLTKTGEAAGWIRQAPGRALEWVTVIFWDDDKRYSPSLQNRISVTKDTSKNQVVLRMTNVARFDTGTYFCWAMGGPGKEYFGQGTLVAVSS
V domain 2: QSVLTQPPSVSGAPGQRVTISCTGTSSSIGPYSDVHWYQHVSGKAPRLLIFGNSNRPSGVPDRFSGSKSGTSASLVIAGLQAEDEADYYCQSYDSSLGEIYVFGTGTTVTVL
B8: antibody 339 (antibody, V domains shown)
V domain 1: B7 V domain 1 with K31R, N67S, I69L, S70T, R83T, G93A, L113Q
V domain 2: B7 V domain 2
B9: antibody 332 (antibody, V domains shown)
VH: QVTLRESGPALVKPTQTLTLTCTFSGFSLSTSGMCVSWIRQPPGKALEWLALIDWDDDKYYSTSLKTRLTISKDTSKNQVVLTMTNMDPVDTATYYCARIHDDILTGYHYVDYWGQGTLVTVSS
VL: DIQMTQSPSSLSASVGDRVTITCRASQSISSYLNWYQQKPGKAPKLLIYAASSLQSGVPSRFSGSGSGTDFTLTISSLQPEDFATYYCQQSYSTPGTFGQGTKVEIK
B10: antibody 324 (antibody, V domains shown)
VH: QVQLQESGPGLVKPSGTLSLTCAVSGGSISSSNWWSWVRQPPGKGLEWIGEIYHSGSTNYNPSLKSRVTISVDNSKNQFSLKLSSVTAADTAVYYCARESVAAAGISYYYYGMDVWGQGTTVTVSS
VL: EIVLTQSPGTLSLSPGERATLSCRASQSVSGRYLAWYQQKPGQAPRLLIYGASSRATGIPDRFSGSGSGTDFTLTISRLEPEDFAVYYCQHYGSSPGTFGQGTRLEIK
B11: antibody 328 (antibody, V domains shown)
VH: B10 VH
VL: DIQMTQSPSSLSASVGDRVTITCRASQGIRNDLGWYQQKPGKAPKRLIYAASSLQSGVPSRFSGSGSGTEFTLTVSGLQPEDFATYYCLQYNSSPLTFGGGTKVEIK
B12: antibody 320 (antibody, V domains shown)
VH: QVQLVQSGAEVKKPGASVKVSCKASGYTFTSYGISWVRQAPGQGLEWMGWISAYNGNTNYAQKLQGRVTMTTDTSTRTAYMELRSLRSDDTAVYYCARVGCYYDSSGYSCAENFQHWGQGTLVTVSS
VL: QSVLTQPPSVSGAPGQRVTISCTGSSSNIGAGYDVHWYQQLPGTAPKLLIYGNSNRPSGVPDRFSGSKSGTSASLAITGLQAEDEADYYCQSYDSSLSALFGGGTKLTVL
B13: anti-SARS-CoV-2 antibody 1075 (antibody, V domains shown)
VH: QVQLVQSGAEVKKPGASVKVSCKVSGYTLIELSMHWVRQAPGKGLEWMGGFDPEDGETIYAQKFQGRVTMTEDTSTDTAYMELSSLRSEDTAVYYCATEWAYYGSGSYLGYWGQGTLVTVSS
VL: EIVMTQSPATLSVSPGERATLSCRASQSVSSNLAWFQQKPGQAPRLLIYGASTRVTVIPARFSGSGSGTEFTLTISSLQSEDFAVYYCQQYNNWPRTFGQGTKVEIKR
B14: anti-SARS-CoV-2 antibody 923 (antibody, V domains shown)
VH: EVQLVESGGGVVRPGGSLRLSCAASGFIFDDYDMTWVRQAPGKGLEWVSGISWNGGNTGYADSVKGRFTISRDNAKNSLYLQMNSLRAEDTALYHCAVIMSPIPRYSGYDWAGGAFDIWGQGTMVTVSS
VL: SSELTQDPAVSVALGQTVRITCQGDSLRSYYASWYQQKPGQVPILVIYDKNNRPSGIPDRFSGSSSGNTASLTITGAQAEDEADYYCNSRDSSGNAVVFGGGTKLTVLG
B15: anti-SARS-CoV-2 antibody 1015 (antibody, V domains shown)
VH: EVQLVESGGGLVQPGGSLRLSCAASGFTFSSYWMHWVRQAPGKGLVWVSHINSDGSSTSYADSVKGRFTISRDNAKNTLYLQMNSLRAEDTAVYYCARGLRYFDLDVWGQGTTVTVSS
VL: QSVLTQPPSVSEAPRQRVTISCSGSSSNIGNNAVNWYQQLPGKAPKLLIFYDDLLPSGVSDRFSGSKSGTSASLAISGLQSEDEADYYCAAWDDSLNGGVFGGGTKLTVLG
B16: anti-SARS-CoV-2 antibody 1037 (antibody, V domains shown)
VH: QITLKESGPTLVKPTQTLTLTCTFSGFSLSTSGVGVGWIRQPPGKALEWLALIYWDDDKRYSPSLKSRLTITKDTSKNQVVLTMTNMDPVDTATYYCAHHTITRINDYWGQGTLVTVSS
VL: QSALTQPASVSGSPGQSITISCTATSSDVGAYNYVSWYQQHPGKAPKLMIYDVSKRPSGVSNRFSGSKSGNTASLTISGLQAEDEADYYCSSYTSSSTVFGGGTKLTVLG
B17: anti-SARS-CoV-2 antibody 1149 (antibody, V domains shown)
VH: QVQLVQSGAEVKKPGASVKVSCKASGYTFASYDINWVRQATGQGPEWMGWMIPNIGNTGYAQKFQGRVTMTRNTSISTAYMELSSLTSEDTAVYYCARVSRLFNDFGLRHEAPVDFWGQGTRVTVSS
VL: QSVLTQPPSVSGAPGQRVTISCTGSSSNIGAGYDVHWYQQLPGTAPKLLIYGYSSRPSGVPDRFSGSKSGTSASLAITGLQAEDEADYYCQSYDSSLSVLFGGGTKLTVLG
B18: anti-SARS-CoV-2 antibody 970 (antibody, V domains shown)
VH: EVQLVESGGGLVQPGGSLRLSCAASGFTFSSYWMSWVRQAPGKGLEWVANINKDGSEKYYVDSVKGRFTISRDNAKNSLYLQMNSLRAEDTAVYFCARDYRYFDWLLSQIDLEIDYFDYWGQGTLVTVSS
VL: not shown
B19: anti-SARS-CoV-2 antibody 1139 (antibody, V domains shown)
VH: QVQLVQSGAEVKKPGASVKVSCKASGYTFSSYEINWVRQATGQGLEWMGRMTLNSGNTGYAQNFQGRVTMTRDTSISTAYMELSGLRSEDTAVYYCARMRSGWPTHGRPDDYWGQGTLVTVSS
VL: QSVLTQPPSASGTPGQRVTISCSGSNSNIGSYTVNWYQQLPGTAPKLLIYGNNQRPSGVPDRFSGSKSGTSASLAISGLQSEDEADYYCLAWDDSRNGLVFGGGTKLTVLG
B20: anti-SARS-CoV-2 antibody 851 (antibody, V domains shown)
VH: QITLKESGPTLVKPTQTLTLTCTFSGFSLSTNGVGMGWIRQPPGKALEWLALIYWDDDQFYSPSLKSRLTITRDTSKNQVVLTMTNMDPVDTATYYCAQAFYESFGFYSWGQGTLVTVSS
VL: NFMLTQPHSVSESPGKTVIISCTRSIGSIASNYVQWYQQRPGSAPTIVVFEDNERPSGVPDRFSGSIDRSSNSASLTISGLKTEDEADYYCQSYDGSSELVFGGGTKLTVLG
B21: antibody 379 (antibody, V domains shown)
VH: QVQLQESGPGLVKPSQTLSLTCTVSGGSISSGGYYWSWIRQHPGKGLEWIGYIYYSGSTYYNPSLKSRVTISVDTSKNQFSLKLSSVTAADTAVYYCARGPLDFWSGYFRLRYFDSWGQGTLVTVSS
VL: QSALTQPASVSGSPGQSITISCTGTSSDVGGYNYVSWYQQHPGKAPKLMIYDVTNRPSGVSNRFSGSKSGNTASLTISGLQAEDEADYYCSSYTSSSTCVFGTGTKVTVL
B22: antibody 380 (antibody, V domains shown)
VH: QVQLVESGGGVVQPGRSLRLSCAASGFTLKNYGMHWVRQAPGKGLEWVIVLSFDGSDEYKADSVRGRFTVSRDNSKNTLFLQMNSLRPDDTAVYYCAREQPTMIEGGRGPFDIWGQGTMVTVSS
VL: EVVMTQSPATLSVSPGDRATLSCRASQGVNSNLAWYQQKPGQAPRLLIYAASTRATGIPARFSASGSGTHFTLTISSLQSEDFAVYYCLQYNNWPPWTFGQGTKLEIK

target: SARS-CoV-2 full length Spike protein, wild type (SARS-CoV-2, UniProt P0DTC2 14-1208); test: not given

In order of falling “bead binding signal (fold over isotype)” value:
1. B12  1200 fold over isotype
2. B5  994 fold over isotype
3. B4  890 fold over isotype
4. B8  874 fold over isotype
5. B7  850 fold over isotype
6. B3  497 fold over isotype
7. B1  442 fold over isotype
8. B2  413 fold over isotype
9. B6  193 fold over isotype
10. B9  1.22 fold over isotype
11. B11  1.2 fold over isotype
12. B10  1.13 fold over isotype

target: SARS-CoV-2 Spike (S) protein, wild type (SARS-CoV-2, UniProt P0DTC2 14-1208); test: HT-SPR Carterra LSA; mAb coupled to chip, Spike in solution; 1:1 Langmuir fit

First: B13
Second: B14
The Kd of the first is higher: 0.717 nM for the first, at most 0.0161 nM for the second. The second binds more tightly here.

B15 and B16 are within 1.5-fold of each other in Kd: 0.0439 nM for the first, 0.0319 nM for the second.

First: B17
Second: B18
The Kd of the first is lower: at most 0.0151 nM for the first, 0.482 nM for the second.

B19 and B20 cannot be ordered by Kd: 0.0433 nM for the first, at most 1.44 nM for the second.

First: B13
Second: B14
The koff of the first is higher: 3.04e-05 s⁻¹ for the first, at most 1e-05 s⁻¹ for the second.

First: B15
Second: B16
The koff of the first is 1.6-fold higher: 2.19e-05 s⁻¹ for the first, 1.36e-05 s⁻¹ for the second.

Going from B17 to B18, the koff rises from at most 1e-05 s⁻¹ to 0.00034 s⁻¹.

First: B19
Second: B20
The koff of the first is higher: 5.31e-05 s⁻¹ for the first, at most 1e-05 s⁻¹ for the second.

In order of falling kon:
1. B19  1.22e+06 M⁻¹ s⁻¹
2. B18  706000 M⁻¹ s⁻¹
3. B17  664000 M⁻¹ s⁻¹
4. B14  653000 M⁻¹ s⁻¹
5. B15  500000 M⁻¹ s⁻¹
6. B16  443000 M⁻¹ s⁻¹
7. B13  227000 M⁻¹ s⁻¹
8. B20  6960 M⁻¹ s⁻¹

target: SARS-CoV Spike protein (SARS-CoV, UniProt P59594 14-1190); test: not given

In order of rising “bead binding signal (median fluorescence, fold over isotype control)” value:
1. B22  1.21 fold over isotype control
2. B21  5.9 fold over isotype control
